Assay results taken from patent publication US7834144B2 (priority 2005, dated 2010).
Values joined by “and” are separate entries in the source; they are usually repeats but may differ in a detail not shown here. Identical values can stand only once. Like-named read-outs stand apart in the source and are kept apart here. Where no end group is shown, it is not given here. [ ]: non-standard residue; d: D form. Nab = not defined here; Nbn = not defined here

Assays:
PrP^Sc [1] = molecular target: T1, PrP^Sc (Homo sapiens, UniProt P04156); settings: Table 16
PrPc = PrPc (Homo sapiens, UniProt P04156)
PrP^Sc [2] = molecular target: T1, PrP^Sc
PrP^Sc [3] = molecular target: T1, PrP^Sc; remark: listed apart in the source
PrP^Sc [4] = molecular target: T1, PrP^Sc; remark: listed apart in the source
PrP^Sc [5] = molecular target: T1, PrP^Sc; type: binding
PrP^Sc [6] = molecular target: T1, PrP^Sc; settings: Table 15
[7] = Table 7, covalently bound to magnetic beads, 70% human plasma

Substance: Peptoid Reagent XIIb: peptoid reagent comprising SEQ ID NO: 240, Nab-Nab-Nab-Nbn-Nab-Nbn, covalently bound to magnetic beads ([Nab][Nab][Nab][Nbn][Nab][Nbn]; reading uncertain; also: covalently bound to magnetic beads, printed as Nab-Nab-Nab-Nbn-Nab-Nbn)
- AVE vCJD + Plasma (PrP^Sc [1]; 50 μl GdnSCN 3M, pH 5.9, 50 μl NaHCO3, final pH 8.5): 60.5
- AVE vCJD + Plasma (PrP^Sc [1]; 100 μl TBST, pH 7.5): 2.2
- S/N (PrP^Sc [1]; 100 μl TBST, pH 7.5): 1
- S/N (PrP^Sc [1]; H3PO4 0.00007M, pH 4): 1
- S/N (PrP^Sc [1]; H3PO4 0.00075M, pH 3): 1
- S/N (PrP^Sc [1]; H3PO4 0.12M, pH 2): 2
- S/N (PrP^Sc [1]; H3PO4 0.5M, pH 1): 5
- AVE vCJD + Plasma (PrP^Sc [1]; H3PO4 (50 μl) 0.00007M, pH 4, NaOH (25 μl) 0.0031N): 7.6
- AVE vCJD + Plasma (PrP^Sc [1]; H3PO4 (50 μl) 0.00075M, pH 3, NaOH (25 μl) 0.031N): 21.8
- AVE vCJD + Plasma (PrP^Sc [1]; H3PO4 (50 μl) 0.12M, pH 2, NaOH (25 μl) 0.31N): 14.6
- AVE vCJD + Plasma (PrP^Sc [1]; H3PO4 (50 μl) 0.5M, pH 1, NaOH (25 μl) 3.1N): 57.1
- S/N (PrP^Sc [1]; NaOH 0.0001M, pH 10): 1
- S/N (PrP^Sc [1]; NaOH 0.001M, pH 11): 2
- S/N (PrP^Sc [1]; NaOH 0.1M, pH 12): 1
- S/N (PrP^Sc [1]; NaOH 0.1M, pH 13): 7
- AVE vCJD + Plasma (PrP^Sc [1]; NaOH (50 μl) 0.0001M, pH 10, NaH2PO4 (20 μl) 0.0003M): 2.8
- AVE vCJD + Plasma (PrP^Sc [1]; NaOH (50 μl) 0.001M, pH 11, NaH2PO4 (20 μl) 0.003M): 8.8
- AVE vCJD + Plasma (PrP^Sc [1]; NaOH (50 μl) 0.1M, pH 12, NaH2PO4 (20 μl) 0.03M): 7.3
- AVE vCJD + Plasma (PrP^Sc [1]; NaOH (50 μl) 0.1M, pH 13, NaH2PO4 (20 μl) 0.3M): 36.9
- Nomal BH (RLU) ave, Pulldown (PrPc; 10 nL of 10% normal BH in 50% pooled normal human plasma, XIIb-beads): 9.9 RLU
- No BH (RLU) ave, Pulldown (PrPc; no BH, 50% pooled normal human plasma, XIIb-beads (background)): 9.0 RLU
- vCJD BH (RLU) ave, Pulldown (PrP^Sc [2]; 10 nL of 10% vCJD BH in 50% pooled normal human plasma, XIIb-beads, 0.1N NaOH): 53.0 RLU
- pulldown efficiency (PrP^Sc [2]; pulldown signal vs directly GdnSCN-denatured 10 nL 10% vCJD sample): ~100%
- enrichment of PrP^Sc over PrP^C (PrP^Sc [3]; 47 pg PrP^Sc pulled down vs 7 pg of about 488 pg PrP^C): ≥ 70 fold
- increase in signal (PrP^Sc [3]; 0.05 μl vCJD BH spiked into 70 μl plasma, versus background): four fold increase in signal
- LU, Pulldown, PrPSc (PrP^Sc [3]; 70 ul plasma (70%) + 50 nl 10% vCJD BH, 3M GdnSCN): 97.1 LU
- pg, Pulldown, PrPSc (PrP^Sc [3]; 70 ul plasma (70%) + 50 nl 10% vCJD BH, 3M GdnSCN, rPrP standard curve): 47 pg and 47.1 pg
- Avg LU, 3F4 Plate (PrP^Sc [4]; vCJD 0 nL BH/asy (background)): 4.55 LU
- Avg LU, C17 Plate (PrP^Sc [4]; vCJD 0 nL BH/asy (background)): 45.56 LU
- S/N, 3F4 Plate (PrP^Sc [4]; vCJD 0 nL BH/asy (background)): 1.0
- S/N, C17 Plate (PrP^Sc [4]; vCJD 0 nL BH/asy (background)): 1.0
- Avg LU, 3F4 Plate (PrP^Sc [4]; vCJD 1 nL BH/asy): 8.90 LU
- Avg LU, C17 Plate (PrP^Sc [4]; vCJD 1 nL BH/asy): 50.75 LU
- S/N, 3F4 Plate (PrP^Sc [4]; vCJD 1 nL BH/asy): 2.0
- S/N, C17 Plate (PrP^Sc [4]; vCJD 1 nL BH/asy): 1.1
- Avg LU, 3F4 Plate (PrP^Sc [4]; vCJD 5 nL BH/asy): 19.34 LU
- Avg LU, C17 Plate (PrP^Sc [4]; vCJD 5 nL BH/asy): 74.71 LU
- S/N, 3F4 Plate (PrP^Sc [4]; vCJD 5 nL BH/asy): 4.3
- S/N, C17 Plate (PrP^Sc [4]; vCJD 5 nL BH/asy): 1.6
- S/N, 3F4 Plate (PrP^Sc [4]; vCJD 10 nL BH/asy): 13.2
- S/N, C17 Plate (PrP^Sc [4]; vCJD 10 nL BH/asy): 2.7
- Avg LU, 3F4 Plate (PrP^Sc [4]; vCJD 10 nL BH/asy, 3F4 capture, C2-AP detection): 60.07 LU
- Avg LU, C17 Plate (PrP^Sc [4]; vCJD 10 nL BH/asy, C17 capture, C2-AP detection): 124.18 LU
- Mean (PrP^Sc [5]; [7]): 174.3
- Mean (% of 68) (PrP^Sc [5]; [7]): 126.4%
- Mean binding (PrP^Sc [5]; Table 10, 0.833 nL human vCJD 10% brain homogenate, 70% human plasma, covalently attached to beads): 49.2
- Mean binding (PrP^Sc [5]; Table 10, 2.5 nL human vCJD 10% brain homogenate, 70% human plasma, covalently attached to beads): 57.3
- Mean binding (PrP^Sc [5]; Table 10, 7.5 nL human vCJD 10% brain homogenate, 70% human plasma, covalently attached to beads): 121.1
- Mean binding (PrP^Sc [5]; Table 11, TBSTT with 70% Human Plasma containing 20 nL 10% human CJD brain homogenate): 1390.8
- Mean (% of Control) (PrP^Sc [5]; Table 13, Control Human Plasma): 100.0%
- Mean (% of Control) (PrP^Sc [5]; Table 13, Human Plasma lot KC011886): 132.78%
- Mean (% of Control) (PrP^Sc [5]; Table 13, Human Plasma lot KC011892): 127.51%
- Mean (% of Control) (PrP^Sc [5]; Table 13, Human Plasma lot KC28719): 126.03%
- Mean (% of Control) (PrP^Sc [5]; Table 13, Human Plasma lot KC032907): 125.02%
- Mean (PrP^Sc [5]; Table 13, bound directly to magnetic beads, Control Human Plasma): 154.99
- Mean (PrP^Sc [5]; Table 13, bound directly to magnetic beads, Human Plasma lot KC011886): 205.80
- Mean (PrP^Sc [5]; Table 13, bound directly to magnetic beads, Human Plasma lot KC011892): 197.63
- Mean (PrP^Sc [5]; Table 13, bound directly to magnetic beads, Human Plasma lot KC28719): 195.33
- Mean (PrP^Sc [5]; Table 13, bound directly to magnetic beads, Human Plasma lot KC032907): 193.77
- S/N (PrP^Sc [6]; 15 μl GdnSCN 3M, pH 5.9): 11
- AVE vCJD + Plasma (PrP^Sc [6]; 15 μl GdnSCN 3M, pH 5.9, 210 μl H20, final pH 6.0): 430.4
- AVE vCJD + Plasma (PrP^Sc [6]; 70 μl TBST, pH 7.5): 25.5
